Columns and labels:
monkey PBMCs = assay: T cell proliferation assay, cynomolgus PBMC; format: cell-based; conditions: donor mk8781M; anti-CD28 500 ng/mL, 72 hours; read-out: Cyno PBMC Proliferation [M] (donor)
Procedure: (§1) Thawed human or freshly isolated monkey PBMCs (50,000 cells/well) were incubated with 3-fold (human, concentration range: 5E-10M to 2.82E-15M; cynomolgus, concentration range: 1E-09M to 4.57E-13M) serial dilutions of STEAP2×CD3 bispecifics or isotype control in complete medium (RPMI supplemented with 10% FBS, 100 U/mL penicillin, 100 μg/mL streptomycin, 292 μg/mL L-glutamine) and a fixed concentration (human: 200 ng/mL, cyno: 500 ng/mL) of a commercial anti-CD28 antibody (Biolegend, Catalog #302914) in white flat bottom 96-well plates for 72 hours at 37° C. Isolated monkey PBMCs were from two donors (identified as mk8781M or mk9381M). Following incubation, CellTiter Glo® (Promega, Cat #7573) was added and luminescence, as readout for cell viability, was measured using a VICTOR X5 multi-label plate reader. Cell titer was calculated by dividing the luminescence of stimulated cells by the baseline luminescence of unstimulated cells.

[1] = test system: PC3_STEAP2/1 cells (PC3 engineered to express a STEAP2/1 chimeric construct); assay: FACS binding titration of STEAP2xCD3 bispecifics on PC3_STEAP2/1 cells; set-up: species or system human; conditions: 66.6 nM to 0.001 nM, 30 minutes at 4° C.
Procedure: (§2) FACS Binding Titration on Jurkat Cells, PC3_STEAP2/1 Cells and cynomolgus T Cells: Flow cytometric analysis was utilized to determine binding of STEAP2×CD3 bispecific antibodies to Jurkat, PC3_STEAP2/1 chimeric and cynomolgus T cells, followed by detection with a phycoerythrin (PE)-labeled anti-human IgG antibody. Briefly, 2×10^5 cells/well were incubated for 30 minutes at 4° C. with a serial dilution of STEAP2×CD3 bispecific antibodies or control antibody (a human IgG1 antibody that binds a feline antigen with no cross-reactivity to STEAP2 or human or cynomolgus CD3) ranging from 66.6 nM to 0.001 nM. After incubation, the cells were washed twice with cold PBS containing 1% filtered FBS and a PE-conjugated anti-human secondary antibody was added to the cells and incubated for an additional 30 minutes. Wells containing no antibody or secondary antibody only were used as a control. After incubation, cells were washed, re-suspended in 200 μL cold PBS containing 1% filtered FBS and analyzed by flow cytometry on a BD FACS Canto II.

cynomolgus T cells = assay: FACS binding titration of STEAP2xCD3 bispecifics on cynomolgus T cells; conditions: 66.6 nM to 0.001 nM, 30 minutes at 4° C.
Procedure: as §2

human CD3 (Jurkat cells) = assay: FACS titration of anti-CD3 antibodies on Jurkat cells; format: binding; conditions: anti-CD3 antibody
From the text: See, e.g. FACS binding experiments outlined in Example 12 and in PCT/US2016/044732 filed Jul. 29, 2016.

human PBMCs = assay: T cell proliferation assay, human PBMC; format: cell-based; conditions: with anti-CD28 200 ng/mL, 72 hours; read-out: hPBMC Proliferation [M] (EC50)
Procedure: as §1
All αSTEAP2×αCD3 bispecific antibodies induce human PBMC proliferation in the presence of a co-stimulatory anti-CD28 antibody (See Table 20 and FIG. 9). PBMCs were incubated with a serial dilution of bispecific antibodies or the control antibody and a fixed concentration of anti-CD28 for 72 hours, and cell viability was measured in a luminescence assay to detect live cells. […]

[2] = test system: Jurkat cells (express human CD3); assay: FACS binding titration of STEAP2xCD3 bispecifics on Jurkat cells; conditions: 66.6 nM to 0.001 nM, 30 minutes at 4° C.
Procedure: as §2

FACS PC3_STEAP2/1 EC50 [M] [1] | Cynomolgus T cells EC50 [M] (cynomolgus T cells) | EC50, FACS titration of Jurkat cells (human CD3) (human CD3 (Jurkat cells)) | EC50 [2] [pM] | Molecule | EC50 (monkey PBMCs) [M] | EC50 (human PBMCs) [M]
No Binding | No Binding | – | – | BSSTEAP2/CD3-011: STEAP2×CD3 bispecific: anti-STEAP2 H1H7809N (SEQ 330), anti-CD3 H1H7203P (SEQ 1474), common LCVR of H1H7809N (antibody, V domains shown) VH 1: QVQLVESGGGVVQPGRSLGLSCAASGFTFSSYGMHWVRQAPGKGLEWVAVIWYDGSNKYYVDSVKGRFTISRDNSKNTLYLQMNSLRAEDTAVYYCAREGLRFLENYYYYYGMDVWGQGTTVTVSS VH 2: EVQLVQSGGGLVQPGRSLRLSCAASGFTFADYTMHWVRQTPGKGLEWVSGISWNSGSKDYADSVKGRFTISRDNAKNSLYLQMNSLRTEDTALYYCAKYGSGYGRYFFYAMDVWGQGTTVTVSS VL: EIVLTQSPGTLSLSPGERATLSCRASQSISSTYLAWYQQRPGQAPRLLIYGASSRATGIPDRFSGSGSGTDFTLTISRLEPEDFAVYYCQQYGTSPYTFGQGTKLEIK | 3.6e-12 | –
– | – | retained their binding affinity | – | CD3-VH-G: anti-CD3 antibody engineered from CD3-VH-P to contain only germline frameworks, HCVR SEQ ID NO: 1730 (antibody, V domains shown) VH: EVQLVESGGGLVQPGRSLRLSCAASGFTFDDYSMHWVRQAPGKGLEWVSGISWNSGSKGYADSVKGRFTISRDNAKNSLYLQMNSLRAEDTALYYCAKYGSGYGKFYHYGLDVWGQGTTVTVSS VL: DIQMTQSPSSLSASVGDSVTITCRASQSINNYLNWYQQKPGKAPKLLIYTASSLLSGVPSRFSGSGSGTDFTLTISGLHPEDFATYFCQQSFSTPPITFGQGTRLDIK | – | –
No Binding | Very Weak | – | 13600 | BSSTEAP2/CD3-010: STEAP2×CD3 bispecific: anti-STEAP2 H1H7809N (SEQ 330), anti-CD3 H1H7198P (SEQ 1466), common LCVR of H1H7809N (antibody, V domains shown) VH 1: QVQLVESGGGVVQPGRSLGLSCAASGFTFSSYGMHWVRQAPGKGLEWVAVIWYDGSNKYYVDSVKGRFTISRDNSKNTLYLQMNSLRAEDTAVYYCAREGLRFLENYYYYYGMDVWGQGTTVTVSS VH 2: EVQLVESGGGLVQPGRSLRLSCAASGFTFADYTMHWVRQVPGKGLEWVSDISWNSGSKDYADSVKGRFTISRDNAKNFLYLQMNSLRAEDTALYYCVKYGSGYGKFYFYAMDVWGQGTTVTVSS VL: EIVLTQSPGTLSLSPGERATLSCRASQSISSTYLAWYQQRPGQAPRLLIYGASSRATGIPDRFSGSGSGTDFTLTISRLEPEDFAVYYCQQYGTSPYTFGQGTKLEIK | – | 6.55e-12
